# The Human Domainome abundance scans (Beltran et al. 2025)
# ± gives the uncertainty stated by the source.
# B1: 3'-5' exoribonuclease 1, residues 65 to 114; numbered along this chain, Q8IV48 (parent)
# chain: VYKEIAITNGCINRMSKEELRAKLSEFKLETRGVKDVLKKRLKNYYKKQK
# Variants of: B1
# Test: abundance fitness (aPCA) (normalised: wild type 0, dead -1); higher = more abundant; growth selection in yeast, the domain comes from the species named
# Settings: Homo sapiens
row,Variant,abundance fitness
1,VYKEIAITNGCINRMSKEELRAKLSEFKLETRGVKDVLKKRLKNYYKFQK [K48F],-0.51 ± 0.074
2,VYKEIAITNGCINRMSKEELRAKLSEFKLETRGVKDVLKKRLKNYYKVQK [K48V],-0.432 ± 0.038
3,VYKEIAITNGCINRMSKEELRAKLSEFKLETRGVKDVLKKRLKNYYKSQK [K48S],-0.158 ± 0.041
4,VYKEIAITNGCINRMSKEELRAKLSEFKLETRGVKDELKKRLKNYYKKQK [V37E],-0.096 ± 0.098
5,QYKEIAITNGCINRMSKEELRAKLSEFKLETRGVKDVLKKRLKNYYKKQK [V1Q],-0.369 ± 0.15
6,YYKEIAITNGCINRMSKEELRAKLSEFKLETRGVKDVLKKRLKNYYKKQK [V1Y],-0.083 ± 0.12
7,VYKEIAITKGCINRMSKEELRAKLSEFKLETRGVKDVLKKRLKNYYKKQK [N9K],0.066 ± 0.055
8,VYKEIAITTGCINRMSKEELRAKLSEFKLETRGVKDVLKKRLKNYYKKQK [N9T],-0.12 ± 0.042
9,VYKEIAITLGCINRMSKEELRAKLSEFKLETRGVKDVLKKRLKNYYKKQK [N9L],-0.127 ± 0.038
10,VYKEIAITNGCINRMSKEKLRAKLSEFKLETRGVKDVLKKRLKNYYKKQK [E19K],-0.324 ± 0.052
11,VYKEIAITNGCINRMSKELLRAKLSEFKLETRGVKDVLKKRLKNYYKKQK [E19L],-0.517 ± 0.041
12,VYKEIAITNGCINRMSKEILRAKLSEFKLETRGVKDVLKKRLKNYYKKQK [E19I],-0.699 ± 0.078
13,VYKEIAITNGCINRMSKEYLRAKLSEFKLETRGVKDVLKKRLKNYYKKQK [E19Y],-0.652 ± 0.056
14,VYKEIAITNGCINRMSKEELHAKLSEFKLETRGVKDVLKKRLKNYYKKQK [R21H],-0.644 ± 0.075
15,VYKEIAITNGCINRMSKEELIAKLSEFKLETRGVKDVLKKRLKNYYKKQK [R21I],-0.226 ± 0.073
16,VYKEIAITNGCINRMSKEELRAKLSEFKLMTRGVKDVLKKRLKNYYKKQK [E30M],-0.685 ± 0.061
17,VYKEIAITNGCINRMSKEELRAKLSEFKLETRGVKDVLKKRLKAYYKKQK [N44A],-0.021 ± 0.04
18,VYKEIAITNGCINRMSKEELRAKLSEFKLETRGVKDVLKKRLKTYYKKQK [N44T],-0.086 ± 0.045
19,VYKEIAITNGCINRMSKEELRAKLVEFKLETRGVKDVLKKRLKNYYKKQK [S25V],-0.205 ± 0.04
20,VYKEIAITNGCINRMSKEELRAKLCEFKLETRGVKDVLKKRLKNYYKKQK [S25C],-0.121 ± 0.052
21,VYKEIAITNGCINRMSKEELRAKLWEFKLETRGVKDVLKKRLKNYYKKQK [S25W],-0.188 ± 0.05
22,VYKEIAITNGCINRMSKEELRAKLPEFKLETRGVKDVLKKRLKNYYKKQK [S25P],-0.323 ± 0.059
23,VYKEIAITNGCINRMSKEELRAKLAEFKLETRGVKDVLKKRLKNYYKKQK [S25A],0.032 ± 0.039
24,VYKEIAITNGCINRMSKEELRAKLQEFKLETRGVKDVLKKRLKNYYKKQK [S25Q],-0.034 ± 0.053
25,VYKFIAITNGCINRMSKEELRAKLSEFKLETRGVKDVLKKRLKNYYKKQK [E4F],-0.214 ± 0.058
26,VYKQIAITNGCINRMSKEELRAKLSEFKLETRGVKDVLKKRLKNYYKKQK [E4Q],-0.085 ± 0.061

row,Variant,abundance fitness
1,VYKGIAITNGCINRMSKEELRAKLSEFKLETRGVKDVLKKRLKNYYKKQK [E4G],-0.093 ± 0.036
2,VYKEIAITNGCINRMSKEELRAKLSEFKLETRGVKDVLKKRLVNYYKKQK [K43V],-0.597 ± 0.047
3,VYKEISITNGCINRMSKEELRAKLSEFKLETRGVKDVLKKRLKNYYKKQK [A6S],-0.075 ± 0.063
4,VYKEIAITNGCINRQSKEELRAKLSEFKLETRGVKDVLKKRLKNYYKKQK [M15Q],-0.885 ± 0.12
5,VYKEIAITNGCINRMSKEELRAKLSEFKLETRGVKDVLKKRKKNYYKKQK [L42K],-1.04 ± 0.1
6,VYKEIAITNGCINRMSKEELRAKLSEFKLETRGVKDVLKKRNKNYYKKQK [L42N],-0.918 ± 0.1
7,VYKEIAITNGCINRMSKEELRAKLSEFKLETRGVKDVLKKRSKNYYKKQK [L42S],-0.511 ± 0.041
8,VYKEIAITNGCINRMSKEELRAKLSEFKLETRGVKDVLKKRHKNYYKKQK [L42H],-0.907 ± 0.075
9,VYKEIAITNGCINRMSKEELRAKLSEFKLETRGVKDVLFKRLKNYYKKQK [K39F],-0.909 ± 0.059
10,VYKEIAITNGCINRMSKEELRAKLSEFKLETRGVKDVLDKRLKNYYKKQK [K39D],-0.967 ± 0.18
11,VYKEIAITNGCINRMSKEELRAKLSEFKLETRGVKDVLKKELKNYYKKQK [R41E],-1.02 ± 0.067
12,VYKEIAITNGCINRMSKEELRAKLSEFKLETRGVKDVLKKRLKNYYKKQH [K50H],-0.164 ± 0.059
13,VYKEIAITNGCINRMSKEELRAKLSEFKLETRGVKDVLKKRLKNYYKKQR [K50R],-0.089 ± 0.071
14,VYKEIAITNCCINRMSKEELRAKLSEFKLETRGVKDVLKKRLKNYYKKQK [G10C],-0.23 ± 0.04
15,VYKEIAITNPCINRMSKEELRAKLSEFKLETRGVKDVLKKRLKNYYKKQK [G10P],-0.248 ± 0.04
16,VYKEIAITNRCINRMSKEELRAKLSEFKLETRGVKDVLKKRLKNYYKKQK [G10R],-0.248 ± 0.035
17,VYKEIAITNGCINRMSKEELRAKLSEFKLETRGVKDVLKKRLKNYYGKQK [K47G],-0.447 ± 0.037
18,VYKEIAITNGCINRMSKEELRAKLSEFKLETRGVKDVLKKRLKNYYLKQK [K47L],-0.381 ± 0.042
19,VYKEIAITNGCINRMSKEELRAKLSEFKLETRGVKDVLKKRLKNYYQKQK [K47Q],-0.325 ± 0.059
20,VYKEIAITNGCINRMSKEELRAKLSEFKLETRGVKDVLKKRLKNYYRKQK [K47R],-0.132 ± 0.035
21,VYKEIAITNGCINRMSKEELRAKLSEFKLETRGVKDVLKKRLKNYYTKQK [K47T],-0.416 ± 0.047
22,VYKEIAITNGCINRMLKEELRAKLSEFKLETRGVKDVLKKRLKNYYKKQK [S16L],-0.838 ± 0.069
23,VYKEIAITNGCINRMKKEELRAKLSEFKLETRGVKDVLKKRLKNYYKKQK [S16K],-0.026 ± 0.12
24,VYKEIAITNGCINRMSKEELRALLSEFKLETRGVKDVLKKRLKNYYKKQK [K23L],-0.176 ± 0.035
25,VYKEIAITNGCINRMSKEELRAQLSEFKLETRGVKDVLKKRLKNYYKKQK [K23Q],-0.11 ± 0.049
26,VYKEIAITNGCINRMSKEELRAPLSEFKLETRGVKDVLKKRLKNYYKKQK [K23P],-0.941 ± 0.061
